Laboratory results published in a protein production outcome set (Wang et al. 2014).

Assay: label from the status in PepcDB records

Row | Sequence | protein production
1 | MMALQEEKGKPVHCERHHESSSVDTEPGLEESKEVIKWKRLPGQACRIPNKHLFSLNAGERGCFCLDFSHNGRILAAACASRDGYPIILYEIPSGRFMRELCGHLNIIYDLSWSKDDHYILTSSSDGTARIWKNEINNTNTFRVLPHPSFVYTAKFHPAVRELVVTGCYDSMIRIWKVEMREDSAILVRQFDVHKSFINSLCFDTEGHHMYSGDCTGVIVVWNTYVKINDLEHSVHHWTINKEIKETEFKGIPISYLEIHPNGKRLLIHTKDSTLRIMDLRILVARKFVGAANYREKIHSTLTPCGTFLFAGSEDGIVYVWNPETGEQVAMYSDLPFKSPIRDISYHPFENMVAFCAFGQNEPILLYIYDFHVAQQEAEMFKRYNGTFPLPGIHQSQDALCTCPKLPHQGSFQIDEFVHTESSSTKMQLVKQRLETVTEVIRSCAAKVNKNLSFTSPPAVSSQQSKLKQSNMLTAQEILHQFGFTQTGIISIERKPCNHQVDTAPTVVALYDYTANRSDELTIHRGDIIRVFFKDNEDWWYGSIGKGQEGYFPANHVASETLYQELPPEIKERSPPLSPEEKTKIEKSPAPQKVK | failed
2 | MMASYLSTPSVSYSMKSYDPVKVLYTVIISLVSLYTLYITSAFFYVLILSALFAYIIHPVYFFCIRFVKSKQICALIPLGTIFLITLASGVMIVKALMNEISRILEIPNTINGFANMDLRRIVGLFEPLIQTHPGKLTESIGAYLNSLVTDYVPQIQNNIFQISTGLSILIIELIVIVVLTYYLLVESETIATELPNLFPDRKVGVVFLGELNYIYQNLFIVYFLTCLITGIIGGVLYWALGVPYSLIWGILTFIMALLPVVGAGTVYGLLALYYVLIDDFFTAGALIFLGIVFLSIIPDFIMRPRFARNRAAIHPAITLVAFAAPVFVLGPIGIIIGPLTYGFLLAAFRTRKILGTSSAQTESSAAGSPEDLVGSQREKSDESPVGRSVERPVKASGERSRSGN | failed
3 | MMCGGRGTRLDAAAEKPLFEVGGRAMVDHVRAALEAAGRIDTTHAAVSPHAPDTAAHLAATPLSLIETPGDGYVADLTAALDAVGTPVLTVAADLPLLAPAVVDTVVAAADGATTSACVPRALKHELGVSTDADADAWVPTGVNVVGGGDTEATHRSFDARLAVNVNHRSDAAVAARLLAATDRRNHPRLEHHHHHH | failed
4 | MMDLHTHTVYSDGIGLIRDNVAWAEKRGLKIVGISDHIHFFTPSRFSAYINEINVIKEESEIVVLAGIEANILENGPDITDEFRKKLDYAIASVHEWFGRNGTHEYINYVKKAIMDDNVDIIGHFGNSFPWIGYPTREEIDEILDLAEAYGKAFEISARYKVPDLEFIRECVKRGIKLSLATDAHRPEDVGKVSWSLKMLEKAGGTKEDLIFSEYL | failed
5 | MMDSIAGPIQVLSRQFPNAQQGKGAALNHAFQIVLTDAEKGHYSWDQVLVGVVDADGFFSENIVNELTAVFTDTTVCAAQTRIKMKDVTNFMFIAQDVEFFTINNFIQKARRATKTIGLGGNGQFFRLSMITEHLGYQPWGNALLDDYELTIKLMLKELSIAYIDEAFMAQEALRDVKRFIRQRSRWVQGNLDCLAYLPRVIKSKSLTLRQKCGIYYFLAQPFINLVAGMLVFVLTGLQLQHLYRLGFSLSLVISFVLAVSISLVFGIFFTINYYRELKNFQLKVPAKLGLIILPFTISYMYLILFVSVVMAYYRFIKGNSTWIKTERN | failed
6 | MMEDDGQPRTLYVGNLSRDVTEVLILQLFSQIGPCKSCKMITEHTSNDPYCFVEFYEHRDAAAALAAMNGRKILGKEVKVNWATTPSSQK | not failed
7 | MMEERAAAAVASAASSCRPLGSGTAPNPTAAAPASSPAPGPGPVGKGGGGGGSPGPTAGPEPLSLPGILHFIQHEWARFEAEKARWEAERAELQAQVAFLQGERKGQENLKTDLVRRIKMLEYALKQERAKYHKLKFGTDLNQGEKKTDLSEQVSNGPVESVTLENSPLVWKEGRQLLRQYLEEVGYTDTILDMRSKRVRSLLGRSLELNGAGEPVEGAPRASPGPGGLSGGESLLVKQIEEQIKRNAAGKDGKERLGGSVLEQIPFLQNCEDEDSDEDDELDSVQHKKQRVRLPSKALVPEMEDEDEEDDSEDAINEFDFLGSGEDGEGSPDPRRCTSEGNPHELESRRVKLQGILADLRDVDGLPPKVTVPPPGTPQPRPHEGSFGFSSDVFIMDTIGGGEVSLGDLADLTVTNDNDLSCDLSDSKDAFKKTWNPKFTLRSHYDGIRSLAFHHSQSALLTASEDGTLKLWNLQKAVTAKKNAALDVEPIHAFRAHRGPVLAVTMGSNSEYCYSGGADARIHSWKIPDLNMDPYDGYDPSVLSHVLEGHGDAVWGLAFSPTSQRLASCSADGTVRIWDPSSSGPSCLCTFPMDGEHGIPTSVAFTSTEPAHVVASFRSGDTVLYDLEAGSALLTLESRGSSGPAQINQVVSHPSQPLTITAHDDRGIRFLDNRTGKSVHSMVAHLDAVTCLAVDPNGVFLMSGSHDCSLRLWSLDNKTCVQEITAHRKKHEEAIHAVACHPSKALIASAGADALAKVFV | failed
8 | MMEKIMEYLQLSDEVVDDGEAPRVEEFLGEGKSFYENFSLRGIRVNRVEPGFISCSFKVPLRLTDRDKNLANGAIANLVDEVGGALVHGEGLPMSVSVDMSIAFLSKAKLGEELEITSRLLGERGGYKGTIVVVRNKMTGEIIAEGRHSMFGRQASKL | failed
9 | MMELDLPATIKRDMKFRYLLIIVPLLFPAHIFGQELPDLGDVSQASVTPHQERQIGIQIMREIRADSSYLDDPEIADYLTRLGNRLIAASGQTNPDNPFEFFAINDSSINAFALPGAFVGFHSGLITAAQNESELAGVMAHEIAHVTQKHLARMISGTSYLGLLGSIAALAIAILASRSNPNAGQAVLATAQASAIQSQLNFTRKHEKEADRVGFNMLIKAGFDPHGMSSFFERMQHASRYYENGMPSYLMTHPVTHERIADIQNRTQELGYRQVPDSLEFHLVRAKIRASRGNPASVINEFKARLQDKRYINEIAEQYGLIQALLRARQFKQADEELNTLYRTIQSDSSAQSLKNHRLGKSIQVDGDYLQSAAMIETLAARVKFASGQTDDAFRLYQSALQSFPHYRALVYGYADALLQHKDAQAALDFINGQSQFIHDDIRLYRLTAQCHAALGNALLQHQAEAEALIREGNLRAAIEQLQIALRHKHDNFYQLSSVEARLRQIKEFVAAEKEKK | failed
10 | MMELHDLAEDLPSKWTEIMAVAEKAFRAFAELDAVKRELAESENAQ | not failed
11 | MMEVGILPVHVLYVFFIGAIILFMLLRKDTTFISLFGIFIISLWASHSLSASVSSLFHSFIYAAGELLPTIFIICFIVSMSDLLTKTGINEAMISPFASLVRGPVTAYWLIGGLMFAISLFFWPSPGVALIGAVLLPAAARAGLTPLAAAMAMNLFGHGFALSGDFVIQAAPKLTADAAGIPVGDVVSASIPLVLIMGVTTTTAAFIMIQRERKKQEHPTSFSPVLSGEQDNSLYLPKRLRSILAFLIPLAFLADIACMLLFNLQGNDATALIGGSAICILFTVHFFVYKHKGLEKITGYFIDGFKFGFKVFGPVIPIAAFFYLGDSGYESILGTSLPKGSHGIVNDLGIALSHMMPMSKELAATALTAAGAITGLDGSGFSGISLAGSIAKLFSSALHADPAILTALGQISAIWVGGGTLVPWALIPAAAICKVDPFELARKNFIPVAIGLLVTTLAAVMML | failed
12 | MMFFQVHPHLTDLVIRTLQATWQQFPWLGQEDIALTLLVYPPPIPVNTGGALTAAEFWQYLIPGAHYRGDVPMYPASVVKLFYLVACHEWLHSGMLQPDAELERAMRDMIVDSSNDATSLVVDMLTGTTSGPVLPPEPFRTWQYQRNIVNRYFQSLGWPELTQINVNQKTWCEGPYGREQEFVGRDRQNANRLTTNATAKLIHSIVGGVAVSASASQGMMELMERSLDPELLAQDPENQVQGFLGEGLPPGAKLWSKAGLTSWVRHDAAYIELPDRCPYTLVVFMENSTASKNTEVLPFISRQIASGIPTLEGAGVL | failed
13 | MMGSVELNLRETELCLGLPGGDTVAPVTGNKRGFSETVDLKLNLNNEPANKEGSTTHDVVTFDSKEKSACPKDPAKPPAKAQVVGWPPVRSYRKNVMVSCQKSSGGPEAAAFVKVSMDGAPYLRKIDLRMYKSYDELSNALSNMFSSFTMGKHGGEEGMIDFMNERKLMDLVNSWDYVPSYEDKDGDWMLVGDVPWPMFVDTCKRLRLMKGSDAIGLAPRAMEKCKSRA | failed
14 | MMHHALHIKNGIVIDPKNGVKAEKMDIFVKNGKIVEESEVKGEDVKVIDANNKLVVAGGVDMHAHIAGSKINTGRTMRPEEMRVVRNIAGKFRAAVGRVLEHHHHHH | not failed
15 | MMHSTVQHGGNKSGKSNVWANTNLAKTVAAVDEFKFGFPSGGLTTVSNKWWGRAEKGGREDGGGENTENGHVAACDETQNSLVAIRKRIAEEGREAVELGLHQGFGSKRPGKRDQALLFQIFNSAMPKDWVTPDSS | failed
16 | MMIDPELRPAFLPAGKLRAAINLGNPILAGTDAAGQAVGVSVDLAREFARRLNAGIELRVFDTAGQSVDAVTREEADIGFFAIDPARGAGIAFTGPYVLIEGAYLVRDDSPLQANEDVDRAGKRVTVGKGSAYDLHLTRALQHAEIVRAASSQAVVDTFLARRLDVAAGVKQQLQADARRVGGVRLLPGRFMVIRQAMGLPKARGDAAAACLDAFVESMKGNGFVAQALARHGIQGASVAPPGRDG | failed
17 | MMIDPELRPAFLPAGKLRAAINLGNPILAGTDAAGQAVGVSVDLAREFARRLNAGIELRVFDTAGQSVDAVTREEADIGFFAIDPARGAGIAFTGPYVLIEGAYLVRDDSPLQANEDVDRAGKRVTVGKGSAYDLHLTRALQHAEIVRAASSQAVVDTFLARRLDVAAGVKQQLQADARRVGGVRLLPGRFMVIRQAMGLPKARGDAAAACLDAFVESMKGNGFVAQALARHGLEHHHHHH | failed
18 | MMIIGINGSPRKNGNTIEMLKSALDGAKAQGAETELINLYDYNYKGCVSCFSCKLKGGRSYGKCALKDDLKPILEKIEKADAFILASPIYFGMVTGEMRSFMERLLFQYLVYDKDHSSLFNRKIKTGFIYTMNVPETYLDSVGYNKLFESNEATLKRIFGASEYILSTDTYQFDDYSKYEASMFDVEAKKKRREEVFPEDCKRAYEMGASFVKLEHHHHHH | failed
19 | MMINMNRKITTYQWWIATLAIVSIFLIILDFAAVIDINIPTSKWFWINDGIVVYFAINYFYHLSKSNDKKTFFKNHIYDLLIIIPIGMLFVVLNAFNLSSLVSYLRLLRLIRLAGLMGKLRQIFHTNGLWYVVFFTITFLLVGAEAFAISEHVSLDTAFWWVLSTASTVGYDGIFGKTIPPHSIVGKFVTLVMMLLGIGIVGMLTSSITSYLVRRTNGANTLETHDNIELILKKLDDIEQQNKELTYQNKKLQAEIQTLKGEKNPLMSYIR | failed
20 | MMISDLPEDMVEEILSRVSIISLGALRWNDLSKARVICKAEARQQFAGFMIKGSKEVSNTRLVVWNPYLGKIWSIQHRSAYHSENRYTLGYDNNRKPQNLEEQLAVLLHNWGAFAMEIWVTTNIEPNAKKHAVIFDSSLSCGSVACIIGETGNLRTVDLGVAAVPYRQLPVCSYAPSLEQINQGQELPLIGLTQIFMEQHKYWVSTFLDNLITKYG | failed
21 | MMIVYKGEKMQFIRVNTLKINPEVLKKRLENKGVVLEKTFLDYAFEVKKSPFSIGSTPEYLFGYYMPQSISSMIPPIVLNPREDDFILDMCAAPGGKTTHLAQLMKNKGTIVAVEISKTRTKALKSNINRMGVLNTIIINADMRKYKDYLLKNEIFFDKILLDAPCSGNIIKDKNRNVSEEDIKYCSLRQKELIDIGIDLLKKDGELVYSTCSMEVEENEEVIKYILQKRNDVELIIIKANEFKGINIKEGYIKGTLRVFPPNEPFFIAKLRKI | not failed
